From article PMC3702382 (Biochemistry, 2013) come the findings set out here.

The data set concerns the molecule itself. The experiment in a line: TOXCAT.

B1: FtsB transmembrane domain TOXCAT construct, Gln 16 to Asn (domain or fragment)
chain: NRASLALTLLLLAILVWLNYSLWFGILIN
As for B1, the “CAT activity, % of WT” value worked out at 67%.

B2: FtsB transmembrane domain TOXCAT construct, Gln 16 to Met (domain or fragment)
chain: NRASLALTLLLLAILVWLMYSLWFGILIN
For B2, the “CAT activity, % of WT” value is 22 % of WT.
